The target in test [1] is T1, W232A mutant of PST PIP, C-terminal FLAG (murine, UniProt P97814 1-415).
T1 construct: In vitro translated or expressed in COS cells; also called W232A PST PIP; PST PIP with an alanine replacement mutation at tryptophan232
T1 sequence: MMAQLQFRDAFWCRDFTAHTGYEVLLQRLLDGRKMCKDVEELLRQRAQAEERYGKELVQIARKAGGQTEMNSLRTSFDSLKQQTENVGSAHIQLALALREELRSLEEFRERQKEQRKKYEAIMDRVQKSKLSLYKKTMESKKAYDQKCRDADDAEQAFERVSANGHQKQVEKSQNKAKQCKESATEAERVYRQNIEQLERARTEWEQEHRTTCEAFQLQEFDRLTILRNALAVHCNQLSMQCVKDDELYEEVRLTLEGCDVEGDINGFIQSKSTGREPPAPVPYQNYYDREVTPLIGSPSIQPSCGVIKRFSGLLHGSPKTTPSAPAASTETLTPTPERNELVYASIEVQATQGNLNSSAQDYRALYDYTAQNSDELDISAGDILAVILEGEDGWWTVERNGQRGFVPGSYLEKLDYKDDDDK
Kind of test: GST-PTP HSCF pulldown of in vitro translated PST PIP mutant. As for the experimental part: In vitro binding analyses between various PTP HSCF and PST PIP constructs were performed as previously described (Spencer et al, (1997), supra). Briefly, plasmids were transcribed and translated in vitro using the TnT Rabbit Reticulocyte Lysate System (Promega). Samples were diluted in 50 mM HEPES, pH 7.2, 1% triton X-100, 10% glycerol, 100 mM NaCl, and 2 µg/ml each of leupeptin, pepstatin, aprotinin and PMSF (lysis buffer). Samples were than reacted with GST fusion proteins at various concentrations, and the bound proteins were centrifuged using glutathione-sepharose beads and analyzed on SDS polyacrylamide gels. C-terminally-derived peptide inhibition studies were performed by incubating the GST fusion protein binding reactions in the presence of 10 µg/ml of the indicated peptides. Peptides were produced by FMOC-protected amino acids as previously described (Spencer et al, (1997), supra). In vivo interactions between various forms of PTP HSCF and PST PIP were also performed as previously described (Spencer et al, (1997), supra). Briefly, COS cells were transfected with various constructs, and after 48 hours, lysates were prepared and immunoprecipitated with antibodies to either the FLAG epitope contained at the C-terminus of PST PIP or an HA epitope contained at the N-terminus of PTP HSCF. […]

The target of test [2] is T2, PST PIP missing 50 amino acids from the N-terminus (delta 50), C-terminal FLAG (murine, UniProt P97814 51-415).
T2 construct: The 5' primer (N-coil.2, Glu51) carries ATGATG before the first PSTPIP codon
T2 sequence: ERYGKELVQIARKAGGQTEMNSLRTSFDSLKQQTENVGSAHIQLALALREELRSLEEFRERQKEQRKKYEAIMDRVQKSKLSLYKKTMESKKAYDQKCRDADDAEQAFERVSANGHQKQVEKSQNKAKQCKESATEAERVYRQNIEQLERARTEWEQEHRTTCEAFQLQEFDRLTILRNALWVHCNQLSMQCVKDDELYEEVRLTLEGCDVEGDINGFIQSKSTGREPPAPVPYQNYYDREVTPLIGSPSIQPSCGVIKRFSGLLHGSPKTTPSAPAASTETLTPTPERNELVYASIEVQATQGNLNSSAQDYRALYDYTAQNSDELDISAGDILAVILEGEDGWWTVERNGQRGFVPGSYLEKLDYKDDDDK
In words: GST-PTP HSCF pulldown of in vitro translated PST PIP deletion mutant. The source says: (§1) FIG. 9. N Terminal Truncations Result in a Loss of PST PIP Binding to PTP HSCF. Full length PST PIP (Spencer et al., *J. Cell. Biol.*, 138(4):845–860 (1997)) and forms missing 25 (delta 25), 50 (delta 50) and 75 (delta 75) amino acids from the N-terminus were transcribed and translated in vitro. The upper panel illustrates immunoprecipitation of the proteins with an antibody directed against a PST PIP C-terminal FLAG epitope. The lower panel illustrates the same proteins precipitated with a GST fusion protein containing the C-terminal 149 amino acids of PTP HSCF (Cheng et al., *Oncogene* 13:2275–2279 (1996)) including the C-terminal proline rich binding site.
(§2) In vitro binding analyses between various PTP HSCF and PST PIP constructs were performed as previously described (Spencer et al, (1997), supra). Briefly, plasmids were transcribed and translated in vitro using the TnT Rabbit Reticulocyte Lysate System (Promega). Samples were diluted in 50 mM HEPES, pH 7.2, 1% triton X-100, 10% glycerol, 100 mM NaCl, and 2 µg/ml each of leupeptin, pepstatin, aprotinin and PMSF (lysis buffer). Samples were than reacted with GST fusion proteins at various concentrations, and the bound proteins were centrifuged using glutathione-sepharose beads and analyzed on SDS polyacrylamide gels. […]

In test [3] the target is T3, PST PIP missing 75 amino acids from the N-terminus (delta 75), C-terminal FLAG (murine, UniProt P97814 76-415).
T3 construct: The 5' primer (N-coil.3, Ser76) carries ATGATG before the first PSTPIP codon
T3 sequence: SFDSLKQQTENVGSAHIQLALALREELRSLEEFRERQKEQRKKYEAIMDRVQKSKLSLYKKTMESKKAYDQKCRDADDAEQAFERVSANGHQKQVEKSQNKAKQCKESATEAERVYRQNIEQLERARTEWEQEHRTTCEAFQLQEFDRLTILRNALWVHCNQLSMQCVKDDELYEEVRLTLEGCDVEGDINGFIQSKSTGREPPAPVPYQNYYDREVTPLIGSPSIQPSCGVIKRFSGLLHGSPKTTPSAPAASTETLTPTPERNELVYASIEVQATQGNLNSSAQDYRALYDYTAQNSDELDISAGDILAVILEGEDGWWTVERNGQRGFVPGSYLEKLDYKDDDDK
The description is as above.
Excerpt: as §1, §2

Test [4] has as its target T4, double mutant of PTP HSCF with both R444 and W450 mutated to alanine, HA tagged (UniProt Q61152 1-453).
T4 construct: range 1-453; also called R+W; R444+W450
T4 sequence (looked up): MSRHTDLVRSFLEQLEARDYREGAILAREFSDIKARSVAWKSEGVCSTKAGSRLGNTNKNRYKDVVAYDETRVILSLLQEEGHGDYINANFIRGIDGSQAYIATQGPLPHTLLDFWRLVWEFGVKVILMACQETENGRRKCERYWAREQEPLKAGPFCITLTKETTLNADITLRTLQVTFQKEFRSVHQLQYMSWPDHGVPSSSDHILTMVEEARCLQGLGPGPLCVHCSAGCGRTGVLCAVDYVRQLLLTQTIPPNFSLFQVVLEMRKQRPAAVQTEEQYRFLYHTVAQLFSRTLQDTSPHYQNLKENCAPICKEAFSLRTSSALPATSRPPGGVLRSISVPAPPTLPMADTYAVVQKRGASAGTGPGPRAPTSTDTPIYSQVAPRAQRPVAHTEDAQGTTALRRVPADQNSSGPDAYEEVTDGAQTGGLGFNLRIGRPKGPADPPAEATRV
Kind of test: anti-HA immunoprecipitation from co-transfected COS cells, blot with anti-PST PIP. The protocol:
Multiple bands precipitated with the GST PST PIP fusion protein are apparently C-terminal proteolyzed products of the PTP. Also shown are GST PST PIP precipitations (10 μg/ml) performed on a double mutant of PTP HSCF (R+W) with both residues $R444$ and $W450$ mutated to alanine (bottom panel FIG. 14 A/2). B. COS cells were co-transfected with a 10:1 ratio of plasmids encoding hemagglutinin (HA) tagged PTP HSCF with the illustrated alanine substitutions or a mutant of PTP HSCF deleted for the C-terminal 24 amino acids (PTP $HSCFD24$) and wild type PST PIP with a C-terminal FLAG epitope tag, respectively. Transfected cell lysates were immunoprecipitated with anti-HA monoclonal antibodies and the precipitates were blotted with anti-PST PIP polyclonal antibody to detect the relative amounts of PST PIP complexed with either wild type or different mutant forms of PTP HSCF. […] Equal expression of PSTPIP was determined by immunoprecipitating lysates with anti-FLAG monoclonal antibody and blotting with anti-PST PIP polyclonal antibody.
In vitro binding analyses between various PTP HSCF and PST PIP constructs were performed as previously described (Spencer et al, (1997), supra). […] Samples were than reacted with GST fusion proteins at various concentrations, and the bound proteins were centrifuged using glutathione-sepharose beads and analyzed on SDS polyacrylamide gels. […]

B1: GST-PST-rich+CTH PTP HSCF (GST fusion of PTP HSCF amino acids 304-453) (other, UniProt Q61152 304-453, looked up)
chain: QNLKENCAPICKEAFSLRTSSALPATSRPPGGVLRSISVPAPPTLPMADTYAVVQKRGASAGTGPGPRAPTSTDTPIYSQVAPRAQRPVAHTEDAQGTTALRRVPADQNSSGPDAYEEVTDGAQTGGLGFNLRIGRPKGPRDPPAEWTRV
notes: range 304-453; the methods give amino acids 304-453; also called GST-PTP HSCF; GST PTP HSCF; not shown: glutathione S-transferase encoded by pGEX-4T-2 (Pharmacia)
Consider B1, for which the binding result in test [1], in test [2] and in test [3] was “no binding” in each case.

B2: full-length PSTPIP tagged with the FLAG epitope at the C-terminus (other)
chain: MMAQLQFRDAFWCRDFTAHTGYEVLLQRLLDGRKMCKDVEELLRQRAQAEERYGKELVQIARKAGGQTEMNSLRTSFDSLKQQTENVGSAHIQLALALREELRSLEEFRERQKEQRKKYEAIMDRVQKSKLSLYKKTMESKKAYDQKCRDADDAEQAFERVSANGHQKQVEKSQNKAKQCKESATEAERVYRQNIEQLERARTEWEQEHRTTCEAFQLQEFDRLTILRNALWVHCNQLSMQCVKDDELYEEVRLTLEGCDVEGDINGFIQSKSTGREPPAPVPYQNYYDREVTPLIGSPSIQPSCGVIKRFSGLLHGSPKTTPSAPAASTETLTPTPERNELVYASIEVQATQGNLNSSAQDYRALYDYTAQNSDELDISAGDILAVILEGEDGWWTVERNGQRGFVPGSYLEKLDYKDDDDK
notes: In vitro transcribed/translated in rabbit reticulocyte lysate, or expressed in COS cells
On to B2, for which the binding result in test [4] is on record as “no binding”.

The record behind these values is US6887705B1, “Tyrosine phosphorylated cleavage furrow-associated proteins (PSTPIPs)” (Genentech, Inc., priority 1997, dated 2005).
